Positions of bridges follow the written chain, without caps; N, C: chain ends. Non-standard residues stand in square brackets, D forms with d. *: point of attachment. Pyrrolidide = C1CCN(*)C1; dNMeA = CN[C@H](C)C(=O)O
T1: full-length human Regnase-1 with a FLAG tag on the N-terminal side and a biotin ligase BirA recognition … (human, UniProt Q5D1E8 1-599, biotinylated at the BirA recognition sequence when required)
T1 sequence: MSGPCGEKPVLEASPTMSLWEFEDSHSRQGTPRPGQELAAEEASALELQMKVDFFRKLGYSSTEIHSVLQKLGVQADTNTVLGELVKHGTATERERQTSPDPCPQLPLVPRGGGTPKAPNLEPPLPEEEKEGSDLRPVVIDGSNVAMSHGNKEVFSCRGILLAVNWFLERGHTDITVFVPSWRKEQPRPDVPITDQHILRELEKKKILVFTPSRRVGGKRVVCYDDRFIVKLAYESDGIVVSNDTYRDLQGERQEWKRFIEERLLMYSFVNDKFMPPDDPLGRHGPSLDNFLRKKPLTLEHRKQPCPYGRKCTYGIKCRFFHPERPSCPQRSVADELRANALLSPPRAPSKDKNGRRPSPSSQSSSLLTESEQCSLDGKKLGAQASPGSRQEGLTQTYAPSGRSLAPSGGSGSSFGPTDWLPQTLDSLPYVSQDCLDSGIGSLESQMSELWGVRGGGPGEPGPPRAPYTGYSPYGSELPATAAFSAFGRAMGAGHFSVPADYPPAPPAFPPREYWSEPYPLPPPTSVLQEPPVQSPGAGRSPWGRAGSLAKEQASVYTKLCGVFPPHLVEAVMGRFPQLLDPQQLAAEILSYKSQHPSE

T2: C-terminal domain-deleted human Regnase-1 (amino acids 1 to 546) with N-terminal FLAG tag and C-terminal BirA … (human, UniProt Q5D1E8 1-546)
T2 sequence: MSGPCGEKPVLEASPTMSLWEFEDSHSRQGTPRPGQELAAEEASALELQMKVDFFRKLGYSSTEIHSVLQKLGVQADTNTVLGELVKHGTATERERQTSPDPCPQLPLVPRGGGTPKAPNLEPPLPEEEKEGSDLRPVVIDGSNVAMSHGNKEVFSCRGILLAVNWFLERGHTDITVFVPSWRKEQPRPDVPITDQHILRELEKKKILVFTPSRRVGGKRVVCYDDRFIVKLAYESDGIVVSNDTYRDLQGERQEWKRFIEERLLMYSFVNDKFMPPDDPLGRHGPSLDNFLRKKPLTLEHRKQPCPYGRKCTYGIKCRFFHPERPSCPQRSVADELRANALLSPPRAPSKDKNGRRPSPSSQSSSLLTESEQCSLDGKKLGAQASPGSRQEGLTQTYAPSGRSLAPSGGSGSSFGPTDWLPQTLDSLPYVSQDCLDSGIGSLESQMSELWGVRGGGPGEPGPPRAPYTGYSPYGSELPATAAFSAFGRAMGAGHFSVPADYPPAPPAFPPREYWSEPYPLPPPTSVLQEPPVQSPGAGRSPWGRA

T3: C-terminal human Regnase-1 (amino acids 301 to 599) with N-terminal FLAG tag and C-terminal BirA recognition … (human, UniProt Q5D1E8 301-599)
T3 sequence: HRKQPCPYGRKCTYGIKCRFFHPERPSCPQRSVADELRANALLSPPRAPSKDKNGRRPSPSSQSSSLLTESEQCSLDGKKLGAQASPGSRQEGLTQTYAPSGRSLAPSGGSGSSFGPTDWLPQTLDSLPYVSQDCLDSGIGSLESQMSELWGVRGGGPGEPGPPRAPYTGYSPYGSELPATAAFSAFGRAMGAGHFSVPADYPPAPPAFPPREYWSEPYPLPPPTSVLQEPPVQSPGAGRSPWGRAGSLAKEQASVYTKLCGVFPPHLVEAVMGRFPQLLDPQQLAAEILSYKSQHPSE

B1: PP13 (peptide)
peptide: XRFRQWKWVYPD
HELM: PEPTIDE1{[meA].R.F.R.Q.W.K.W.V.Y.P.D.[C1CCN([*:1])C1]}$PEPTIDE1,PEPTIDE1,1:R1-12:R3$$$V2.0
SMILES: CC(C)[C@@H]1NC(=O)[C@H](Cc2c[nH]c3ccccc23)NC(=O)[C@H](CCCCN)NC(=O)[C@H](Cc2c[nH]c3ccccc23)NC(=O)[C@H](CCC(N)=O)NC(=O)[C@H](CCCNC(=N)N)NC(=O)[C@H](Cc2ccccc2)NC(=O)[C@H](CCCNC(=N)N)NC(=O)[C@H](C)N(C)C(=O)C[C@@H](C(=O)N2CCCC2)NC(=O)[C@@H]2CCCN2C(=O)[C@H](Cc2ccc(O)cc2)NC1=O
B2: PP11 (peptide)
peptide: XKFAQFRWIYPD
HELM: PEPTIDE1{[meA].K.F.A.Q.F.R.W.I.Y.P.D.[C1CCN([*:1])C1]}$PEPTIDE1,PEPTIDE1,1:R1-12:R3$$$V2.0
SMILES: CC[C@H](C)[C@@H]1NC(=O)[C@H](Cc2c[nH]c3ccccc23)NC(=O)[C@H](CCCNC(=N)N)NC(=O)[C@H](Cc2ccccc2)NC(=O)[C@H](CCC(N)=O)NC(=O)[C@H](C)NC(=O)[C@H](Cc2ccccc2)NC(=O)[C@H](CCCCN)NC(=O)[C@H](C)N(C)C(=O)C[C@@H](C(=O)N2CCCC2)NC(=O)[C@@H]2CCCN2C(=O)[C@H](Cc2ccc(O)cc2)NC1=O
B3: PP8 (peptide)
peptide: XSKYWNSWYNIWD
HELM: PEPTIDE1{[C[C@H](C(=O)[*:2])N(C)[*:1]].S.K.Y.W.N.S.W.Y.N.I.W.D.[C1CCN([*:1])C1]}$PEPTIDE1,PEPTIDE1,1:R1-13:R3$$$V2.0
SMILES: CC[C@H](C)[C@@H]1NC(=O)[C@H](CC(N)=O)NC(=O)[C@H](Cc2ccc(O)cc2)NC(=O)[C@H](Cc2c[nH]c3ccccc23)NC(=O)[C@H](CO)NC(=O)[C@H](CC(N)=O)NC(=O)[C@H](Cc2c[nH]c3ccccc23)NC(=O)[C@H](Cc2ccc(O)cc2)NC(=O)[C@H](CCCCN)NC(=O)[C@H](CO)NC(=O)[C@@H](C)N(C)C(=O)C[C@@H](C(=O)N2CCCC2)NC(=O)[C@H](Cc2c[nH]c3ccccc23)NC1=O
B4: PP7 (peptide)
peptide: XNFNSAYYRAIWD
HELM: PEPTIDE1{[meA].N.F.N.S.A.Y.Y.R.A.I.W.D.[C1CCN([*:1])C1]}$PEPTIDE1,PEPTIDE1,1:R1-13:R3$$$V2.0
SMILES: CC[C@H](C)[C@@H]1NC(=O)[C@H](C)NC(=O)[C@H](CCCNC(=N)N)NC(=O)[C@H](Cc2ccc(O)cc2)NC(=O)[C@H](Cc2ccc(O)cc2)NC(=O)[C@H](C)NC(=O)[C@H](CO)NC(=O)[C@H](CC(N)=O)NC(=O)[C@H](Cc2ccccc2)NC(=O)[C@H](CC(N)=O)NC(=O)[C@H](C)N(C)C(=O)C[C@@H](C(=O)N2CCCC2)NC(=O)[C@H](Cc2c[nH]c3ccccc23)NC1=O
B5: PP10 (peptide)
peptide: XNYQSWYYRSIWD
HELM: PEPTIDE1{[meA].N.Y.Q.S.W.Y.Y.R.S.I.W.D.[C1CCN([*:1])C1]}$PEPTIDE1,PEPTIDE1,1:R1-13:R3$$$V2.0
SMILES: CC[C@H](C)[C@@H]1NC(=O)[C@H](CO)NC(=O)[C@H](CCCNC(=N)N)NC(=O)[C@H](Cc2ccc(O)cc2)NC(=O)[C@H](Cc2ccc(O)cc2)NC(=O)[C@H](Cc2c[nH]c3ccccc23)NC(=O)[C@H](CO)NC(=O)[C@H](CCC(N)=O)NC(=O)[C@H](Cc2ccc(O)cc2)NC(=O)[C@H](CC(N)=O)NC(=O)[C@H](C)N(C)C(=O)C[C@@H](C(=O)N2CCCC2)NC(=O)[C@H](Cc2c[nH]c3ccccc23)NC1=O
B6: PP12 (peptide)
peptide: XRYAVYQWIYPD
HELM: PEPTIDE1{[meA].R.Y.A.V.Y.Q.W.I.Y.P.D.[C1CCN([*:1])C1]}$PEPTIDE1,PEPTIDE1,1:R1-12:R3$$$V2.0
SMILES: CC[C@H](C)[C@@H]1NC(=O)[C@H](Cc2c[nH]c3ccccc23)NC(=O)[C@H](CCC(N)=O)NC(=O)[C@H](Cc2ccc(O)cc2)NC(=O)[C@H](C(C)C)NC(=O)[C@H](C)NC(=O)[C@H](Cc2ccc(O)cc2)NC(=O)[C@H](CCCNC(=N)N)NC(=O)[C@H](C)N(C)C(=O)C[C@@H](C(=O)N2CCCC2)NC(=O)[C@@H]2CCCN2C(=O)[C@H](Cc2ccc(O)cc2)NC1=O

How the values were obtained:
Assay in all cases: cell-based or functional assay
[1] = target: T1, full-length human Regnase-1 with a FLAG …
[2] = target: T2, C-terminal domain-deleted human …
[3] = target: T3, C-terminal human Regnase-1 (amino acids …)
[4] = target: T1, full-length human Regnase-1 with a FLAG …; remark: listed apart in the source
[5] = target: T2, C-terminal domain-deleted human …; remark: listed apart in the source
[6] = target: T3, C-terminal human Regnase-1 (amino acids …); remark: listed apart in the source

Binder | 50% inhibition concentration, Regnase-1 phosphorylation by TBK1 (AlphaScreen) [1] [µM] | 50% inhibition concentration, Regnase-1 phosphorylation by TBK1 (AlphaScreen) [2] [µM] | 50% inhibition concentration, Regnase-1 phosphorylation by TBK1 (AlphaScreen) [3] [µM] | 50% inhibition concentration, Regnase-1 phosphorylation by IKKβ (AlphaScreen) [4] [µM] | 50% inhibition concentration, Regnase-1 phosphorylation by IKKβ (AlphaScreen) [5] [µM] | 50% inhibition concentration, Regnase-1 phosphorylation by IKKβ (AlphaScreen) [6] [µM]
B1 | 8.4 | 17.7 | 18 | 3.6 | 43.2 | 23.2
B2 | 29.1 | 55.6 | > 62.1 | 22.3 | > 62.1 | > 62.1
B3 | 2.9 | 5.5 | 6 | 1.4 | 7.8 | 5.7
B4 | 2.2 | 4.7 | 4.6 | 0.8 | 4.5 | 3
B5 | 0.2 | 0.2 | 0.4 | 0.5 | 2.6 | 1.8
[dNMeA]TYGHSSWYKIWD-Pyrrolidide (lactam N-13) [PP9] | 4.2 | 6.6 | 7.9 | 2.7 | 6.4 | 6.2
B6 | 12.7 | 22.5 | 19.6 | 6.8 | 27 | 20.7
